Source: patent US20160326230A1 (SHANGHAI HENGRUI PHARMACEUTICAL, published 2016)
No end group written: not given here.

Biological target: the receptor on THP-1 cells
Test: cell-based or functional assay

B1: recombinant human relaxin 800828 (WT, wild-type) (ligand)
chain 1: DSWMEEVIKLCGRELVRAQIAICGMSTWS
chain 2: QLYSALANKCCHVGCTKRSLARFC
modifications: not fully specified; ends and bridges not checked
- EC50 (ng/ml) of cAMP induced in THP-1 cells (cAMP ELISA): 3.03 ng/mL
